The RNAGym collection of RNA variant scans (doi:10.1073/pnas.2313332121)
Fewer inactive variants are shown than the library holds.

B1: TPR 5TU (parent)
chain: GGAUCUUCUCGAUCUAACAAAAAAGACAAAUCUGCCACAAAGCUUGAGAGCAUCUUCGGAUGCAGAGGCGGCAGCCUUCGGUGGCGCGAUAGCGCCAACGUUCUCAACUAUGACACGCAAAACGCGUGCUCCGUUGAAUGGAGUUUAUCAUG

Variants of: B1
Assay: polymerase ribozyme fitness, log enrichment relative to wild type (log ratio); higher = more active; in vitro selection for triplet polymerase activity
Outline: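 Streptavidin-bead capture of gel-excised extended constructs, followed by RT-PCR, closed a single triplicate in vitro selection round. That round began by annealing PCR-built, transcribed mutant libraries of each subunit of a heterodimeric triplet polymerase ribozyme with a biotinylated primer, the partner subunit and triplets, then incubating them frozen at −7 °C. After Illumina sequencing of inputs and outputs, genotypes needed ≥10 input reads and ≥1 read per output. Fitness is the base-2 logarithm of genotype enrichment over wild-type enrichment, using inverse-variance-weighted replicate averages.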

First: GGAUCUUCUCGAUCUAACAAAAAAGACAAAUCUGCCACAAAGCUUGAGAGCAUCUUCGGAUGCAGAGGCGGCAGCCUUCGGUGGCGCGAUAGCGCCAACGGUCUCAACUAUGACACGCAAAACGCGUGCUCCGUUAAAUGGAGUUUAUCAUG
Second: GGAUCUUCUCGAUCUAACAAAAAAGACAAAUCUGCCACAAAGCUUGAGAGCAUCUUCGGAUGCAGAGGCGGCAGCCUUCGGUGGCGCGAUAGCGCCAACGGUCUCAACUAUGACACGCAAAACGCGUGCUCCGUUCAAUGGAGUUUAUCAUG
The “polymerase ribozyme fitness (log ratio)” value of the first is higher: 0.652 for the first, -2.44 for the second.

GGAUCUUCUCGAUCUAACAAAAAAGACAAAUCUGCCACAAAGCUUGAGAGCAUCUUCGGAUGCAGAGGCGGCAGCCUUCGGUGGCGCGAUAGCGCCAACGUCCUCAACUAUGACACGCAAAACGCGUGCUCCGAUGAAUGGAGUUUAUCAUG and GGAUCUUCUCGAUCUAACAAAAAAGACAAAUCUGCCACAAAGCUUGAGAGCAUCUUCGGAUGCAGAGGCGGCAGCCUUCGGUGGCGCGAUAGCGCCAACGGUCUCAACUAUGACACGAAAAACGCAUGCUCCGUUGAAUGGAGUUUAUCAUG are within 0.2 log units of each other in “polymerase ribozyme fitness (log ratio)” value: -3.46 for the first, -3.59 for the second.

First: GGAUCUUCUCGAUCUAACAAAAAAGACAAAUCUGCCACAAAGCUUGAGAGCAUCUUCGGAUGCAGAGGCGGCAGCCUUCGGUGGCGCGAUAGCGCCAACGAUCUCAACGAUGACACGUAAAACGGGUGCUCCGUUGAGUGAAGUUUAUCAUG
Second: GGAUCUUCUCGAUCUAACAAAAAAGACAAAUCUGCCACAAAGCUUGAGAGCAUCUUCGGAUGCAGAGGCGGCAGCCUUCGGUGGCGCGAUAGCGCCAACGUGCUCAACUAUGACACGCAAAACACGUGCUCCGUUGAAUGGAGUUUAUCAUG
The “polymerase ribozyme fitness (log ratio)” value of the first is lower: ≤ -4.2 for the first, -2.85 for the second.

First: GGAUCUUCUCGAUCUAACAAAAAAGACAAAUCUGCCACAAAGCUUGAGAGCAUCUUCGGAUGCAGAGGCGGCAGCCUUCGGUGGCGCGAUAGCGCCAACGUGCUCAACUAUGACACGCAAUACGCGUGCUCCGUUGAAUGGAGUUUAUCAUG
Second: GGAUCUUCUCGAUCUAACAAAAAAGACAAAUCUGCCACAAAGCUUGAGAGCAUCUUCGGAUGCAGAGGCGGCAGCCUUCGGUGGCGCGAUAGCGCCAACGUGCUCAACUAUGACACGCAACACGCGUGCUCCGUUGAAUGGAGUUUAUCAUG
The “polymerase ribozyme fitness (log ratio)” value of the first is higher: -2.32 for the first, -2.85 for the second.

Compared with GGAUCUUCUCGAUCUAACAAAAAAGACAAAUCUGCCACAAAGCUUGAGAGCAUCUUCGGAUGCAGAGGCGGCAGCCUUCGGUGGCGCGAUAGCGCCAACUUUCUCAACUAUGACACGCAAAACGCGUGCUCCGUUGAAUGGAGGUUAUCAUG, GGAUCUUCUCGAUCUAACAAAAAAGACAAAUCUGCCACAAAGCUUGAGAGCAUCUUCGGAUGCAGAGGCGGCAGCCUUCGGUGGCGCGAUAGCGCCAACGUCCUCAACUAUGACACGCAAAACGCGUGCUCCGUUGAAUGGAGUUUAUCCUG is lower in “polymerase ribozyme fitness (log ratio)” value: -3.5 for the first, -4.08 for the second.

First: GGAUCUUCUCGAUCUAACAAAAAAGACAAAUCUGCCACAAAGCUUGAGAGCAUCUUCGGAUGCAGAGGCGGCAGCCUUCGGUGGCGCGAUAGCGCCAACGUCCUCAACUAUGACACGCAAAACGCGUGCUCCGUUAAAUGGAGUUUAUCAUG
Second: GGAUCUUCUCGAUCUAACAAAAAAGACAAAUCUGCCACAAAGCUUGAGAGCAUCUUCGGAUGCAGAGGCGGCAGCCUUCGGUGGCGCGAUAGCGCCAACGGUCUCAACUAUGACACGCAAAACACGUGCUCCGUUGAAUGGAGUUUAUCAUG
The “polymerase ribozyme fitness (log ratio)” value of the first is lower: -0.705 for the first, 0.852 for the second.

Compared with GGAUCUUCUCGAUCUAACAAAAAAGACAAAUCUGCCACAAAGCUUGAGAGCAUCUUCGGAUGCAGAGGCGGCAGCCUUCGGUGGCGCGAUAGCGCCAACGGUCUCAACUAUGACACACAAAACGCGUGCUCCUUUGAAUGGAGUUUAUCAUG, GGAUCUUCUCGAUCUAACAAAAAAGACAAAUCUGCCACAAAGCUUGAGAGCAUCUUCGGAUGCAGAGGCGGCAGCCUUCGGUGGCGCGAUAGCGCCAACGUGCUCAACUAUGACAAGCAAAACGCGUGCUCCGUUGAAUGGAGUUUAUCAUG is higher in “polymerase ribozyme fitness (log ratio)” value: -4.1 for the first, -2.07 for the second.

Compared with GGAUCUUCUCGAUCUAACAAAAAAGACAAAUCUGCCACAAAGCUUGAGAGCAUCUUCGGAUGCAGAGGCGGCAGCCUUCGGUGGCGCGAUAGCGCCAACGUGCUCAACUAUGACAGGCAAAACGCGUGCUCCCUUGAAUGGAGUUUAUCAUG, GGAUCUUCUCGAUCUAACAAAAAAGACAAAUCUGCCACAAAGCUUGAGAGCAUCUUCGGAUGCAGAGGCGGCAGCCUUCGGUGGCGCGAUAGCGCCAACGUCCUCAACUAUGACACGCAAAACGCGUGCUCCGUUGAAUGGAGUUUACCAUG is higher in “polymerase ribozyme fitness (log ratio)” value: -3.6 for the first, -3.19 for the second.

First: GGAUCUUCUCGAUCUAACAAAAAAGACAAAUCUGCCACAAAGCUUGAGAGCAUCUUCGGAUGCAGAGGCGGCAGCCUUCGGUGGCGCGAUAGCGCCAACGGUCUCAACUAUGACUCUCAAAACGCGUGCUCCGUUGAAUGGAGUUUAUCCUG
Second: GGAUCUUCUCGAUCUAACAAAAAAGACAAAUCUGCCACAAAGCUUGAGAGCAUCUUCGGAUGCAGAGGCGGCAGCCUUCGGUGGCGCGAUAGCGCCAACGAUCUCAACUAUGACACGCAAAACGCGUGCUCCGUUGAAUGGACUUUAUCAUG
The “polymerase ribozyme fitness (log ratio)” value of the first is lower: ≤ -4.2 for the first, -2.08 for the second.

In the case of GGAUCUUCUCGAUCUAACAAAAAAGACAAAUCUGCCACAAAGCUUGAGAGCAUCUUCGGAUGCAGAGGCGGCAGCCUUCGGUGGCGCGAUAGCGCCAACGUGCCCAACUAUGACACGCAAAACGCGUGCUCCGUUGAAUGGAGUUUAUCAUG, the “polymerase ribozyme fitness (log ratio)” value is reported as ≤ -4.2.
